Positions of bridges follow the written chain, without caps; N, C: chain ends. No end group written: not given here.
Target: T1, GST-HCCS (human holocytochrome c synthase, GST-tagged) (human, UniProt P53701 1-268)
T1 construct: human HCCS (holocytochrome c synthase), recombinant, from pGEX GST:HCCS; Carries non-covalent heme liganded to His154 (about 10% occupied as purified, about 30% after heme loading); also called holocyt c synthase; mitochondrial cyt c synthase
T1 sequence (looked up): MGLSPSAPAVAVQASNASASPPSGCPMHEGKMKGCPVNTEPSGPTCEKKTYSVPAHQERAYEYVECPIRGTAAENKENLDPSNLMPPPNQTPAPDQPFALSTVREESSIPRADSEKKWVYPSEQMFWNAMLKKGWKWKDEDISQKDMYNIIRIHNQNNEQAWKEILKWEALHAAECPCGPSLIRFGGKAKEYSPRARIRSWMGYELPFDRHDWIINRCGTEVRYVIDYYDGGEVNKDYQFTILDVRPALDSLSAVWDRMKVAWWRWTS
Test: UV-vis absorption spectroscopy; anaerobic in vitro reaction of purified HCCS with peptide, 5 mM DTT, 37°C, 1 hr; reduced alpha peak at 552-555 nm read as heme-attached peptide still bound to HCCS (550 nm for a free heme-attached peptide)
Settings: both partners purified

B1: heme-attached 16mer (product of the HCCS reaction) (peptide)
peptide: KGKKIFIMKCSQCHTV
modifications: linker 10-13 via heme; also: biotin label, position not given here
notes: stretch of cytochrome c with alpha helix 1 and CXXCH; The product of m6 in the HCCS reaction; source: synthetic peptide (RS-synthesis), heme attached in vitro by GST-HCCS
B1: binds.

Source: publication PMC8112865, “In vitro reconstitution reveals major differences between human and bacterial cytochrome c synthases” (eLife, 2021)
